This data set can be described thus: Serum concentration of OCIF after intravenous injection in rats. The settings on record: Wistar female rat, single i.v. dose 0.5 mg OCIF/kg, 6 hours after administration. The data set is classed as in vivo. How it is done: Five-week old Wistar female rat (having a body weight of about 100 g) were made to abstain from food overnight. The preparation of OCIF and dextran sulfate prepared in either Preparation Example 1, Preparation Example 2 or Reference Example 1 which was to be tested was diluted to a concentration of 0.25 mg/ml with PBS (pH 7.4) containing 0.01% Polysorbate 80 to prepare an injectable solution, which was then administered to the tail of one of the test rats via a vein in a single dose at an injected level of 2 ml/kg body weight. 6 hours after administration, blood was taken from the heart of the rat. […]
After stirring gently using a shaking machine (Micro plate mixer NS-P: manufactured by Iuchi Seiei-Do Co Ltd.), the absorbance of each well at a wavelength of 450 nm was measured using a micro plate reader (SPECTRA THERMO: manufactured by TECAN). The OCIF concentration in the tested serum was then calculated from a calibration curve created using the standard OCIF solution. The dose was calculated as the dose of OCIF per kg body weight (mg/kg) by measuring the concentration of OCIF in each injection prepared in 1(a) in a similar manner to the case of the serum.
The OCIF in the serum obtained in 1(b) above was quantified for each sample according to the method described in 1(c) above.

For the substance “Prep. 4: OCIF/DS5 complex: DS5 130 mg/ml, OCIF 6.5 mg/ml, 4 °C, pH 10.5, 72 h”, the “Serum concentration (OCIF)” value came out at 370 ng/mL.

These data come from patent US20030216297A1, “Pharmaceutical composition” (SANKYO COMPANY, LIMITED, priority 2002, published 2003).
